Results: US9187525B2, “Methods of treating ophthalmic diseases using NPR-B agonists” (Shire Orphan Therapies GmbH, dated 2015)
Numbered stars: 1 amine (or outer) side, 2 acyl side, 3 side chain; on linkers, the order of the positions; unused ones are H or OH. Square brackets hold non-standard residues; d marks the D form. Ends that are not written are not given here. * marks the point of attachment. Nbhp = rac-(2,3-dihydroxy-propylamino)-acetic acid, O=C(CN(CC(O)CO[*:3])[*:1])[*:2]; Nhpr = (3-hydroxy-propylamino)acetic acid, O=C(CN(CCCO[*:3])[*:1])[*:2]; Gluc‑Aoa = (2,3,4,5,6-pentahydroxyhexylidenaminooxy)-acetic acid; Paa = piperazin-1-yl-acetic acid, O=C(CN1CCN([*:1])CC1)[*:2]; Pro(trans-4-NH2) = O=C([C@@H]1C[C@@H](N[*:3])CN1[*:1])[*:2]; Sni = (S)-nipecotic acid, O=C([C@H]1CCCN([*:1])C1)[*:2]; Hyp = O=C(O)[C@@H]1C[C@@H](O)CN1; dAoc(2) = CCCCCC[C@@H](N)C(=O)O; AR‑314‑102 = not defined here; Aoc(2) = CCCCCC[C@H](N)C(=O)O; NMeL = CN[C@@H](CC(C)C)C(=O)O; AR‑314‑87 = not defined here; d(hSer) = N[C@H](CCO)C(=O)O; lys(Me2) = not defined here; orn(Me2) = not defined here; dDab = NCC[C@@H](N)C(=O)O; Octanoyl = CCCCCCCC(=O)*; 1270 = not defined here; 1888 = not defined here; 1913 = not defined here; Adx = not defined here; Che = not defined here; Hexanoyl = CCCCCC(=O)*; Oct = not defined here; leu = not defined here; thz = not defined here

T1: natriuretic peptide receptor-B (human)
T1 chain: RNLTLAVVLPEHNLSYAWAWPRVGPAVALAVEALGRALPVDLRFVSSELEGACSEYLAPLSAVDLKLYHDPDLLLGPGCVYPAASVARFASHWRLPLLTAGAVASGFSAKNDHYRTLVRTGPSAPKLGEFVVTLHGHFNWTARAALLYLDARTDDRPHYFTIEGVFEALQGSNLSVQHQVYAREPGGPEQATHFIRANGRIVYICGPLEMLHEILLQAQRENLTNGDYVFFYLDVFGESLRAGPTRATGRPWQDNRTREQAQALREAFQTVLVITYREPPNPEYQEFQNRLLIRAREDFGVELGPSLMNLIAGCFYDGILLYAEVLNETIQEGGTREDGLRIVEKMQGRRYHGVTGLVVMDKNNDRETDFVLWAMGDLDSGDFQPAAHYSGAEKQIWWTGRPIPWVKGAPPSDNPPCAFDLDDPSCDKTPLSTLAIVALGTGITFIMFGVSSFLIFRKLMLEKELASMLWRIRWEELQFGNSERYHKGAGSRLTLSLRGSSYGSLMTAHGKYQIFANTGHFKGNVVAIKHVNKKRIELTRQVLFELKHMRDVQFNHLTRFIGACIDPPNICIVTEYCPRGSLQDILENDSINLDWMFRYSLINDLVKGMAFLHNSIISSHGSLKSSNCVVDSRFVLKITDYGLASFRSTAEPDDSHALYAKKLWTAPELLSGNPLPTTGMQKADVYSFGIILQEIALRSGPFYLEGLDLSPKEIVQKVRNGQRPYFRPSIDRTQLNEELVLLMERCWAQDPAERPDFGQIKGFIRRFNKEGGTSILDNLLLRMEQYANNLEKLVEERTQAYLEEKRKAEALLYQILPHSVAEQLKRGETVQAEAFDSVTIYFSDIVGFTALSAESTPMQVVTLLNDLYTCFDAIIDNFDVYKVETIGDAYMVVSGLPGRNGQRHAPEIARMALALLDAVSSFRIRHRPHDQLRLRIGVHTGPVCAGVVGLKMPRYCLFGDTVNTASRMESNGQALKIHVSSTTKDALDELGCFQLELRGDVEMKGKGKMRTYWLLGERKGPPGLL

B1: JAL-1774 (peptide)
peptide: [AR‑314‑102][leu]L[Hyp][NMeL]DRI-NH2
modifications: reading uncertain; also: printed as (AR-314-102)-leu-Leu-Hyp-Nml-Asp-Arg-Ile-NH2
B2: JAL-1776 (peptide)
peptide: Octanoyl-[Sni]F[orn(Me2)]L[Hyp][NMeL]DR[Che]
modifications: reading uncertain; also: printed as Occ-Sni-Phe-orn(Me2)-Leu-Hyp-Nml-Asp-Arg-Che
B3: JAL-1777 (peptide)
peptide: Octanoyl-[Sni]F[lys(Me2)]L[Hyp][NMeL]DR[Che]
modifications: reading uncertain; also: printed as Occ-Sni-Phe-lys(Me2)-Leu-Hyp-Nml-Asp-Arg-Che
B4: JAL-1778 (peptide)
peptide: Octanoyl-[Sni]F[orn(Me2)]L[Hyp][NMeL]VR[Che]
modifications: reading uncertain; also: printed as Occ-Sni-Phe-orn(Me2)-Leu-Hyp-Nml-Val-Arg-Che
B5: JAL-1779 (peptide)
peptide: Octanoyl-[Sni]F[lys(Me2)]L[Hyp][NMeL]VR[Che]
modifications: reading uncertain; also: printed as Occ-Sni-Phe-lys(Me2)-Leu-Hyp-Nml-Val-Arg-Che
B6: JAL-1781 (peptide)
peptide: Octanoyl-[Sni]F[lys(Me2)]L[Hyp][NMeL]DRI-NH2
modifications: reading uncertain; also: printed as Occ-Sni-Phe-lys(Me2)-Leu-Hyp-Nml-Asp-Arg-Ile-NH2
B7: JAL-1782 (peptide)
peptide: Octanoyl-[Sni]F[orn(Me2)]L[Hyp][NMeL]VRI-NH2
modifications: reading uncertain; also: printed as Occ-Sni-Phe-orn(Me2)-Leu-Hyp-Nml-Val-Arg-Ile-NH2
B8: JAL-1784 (peptide)
peptide: Octanoyl-[Sni]F[dDab](Me2)L[Hyp][NMeL]VR[Che]
modifications: reading uncertain; also: printed as Occ-Sni-Phe-dab(Me2)-Leu-Hyp-Nml-Val-Arg-Che
B9: JAL-1798 (peptide)
peptide: Octanoyl-[Nhpr]FLL[Hyp][NMeL]DRI-NH2
modifications: not fully specified (some residues); printed as Occ-Nhpr-Phe-leu-Leu-Hyp-Nml-Asp-Arg-Ile-NH2
B10: JAL-1799 (peptide)
peptide: Octanoyl-[Nbhp]FLL[Hyp][NMeL]DRI-NH2
modifications: not fully specified (some residues); printed as Occ-Nbhp-Phe-leu-Leu-Hyp-Nml-Asp-Arg-Ile-NH2
B11: JAL-1800 (peptide)
peptide: Octanoyl-SFLL[Hyp][NMeL]DRI-NH2
modifications: not fully specified (some residues); printed as Occ-ser-Phe-leu-Leu-Hyp-Nml-Asp-Arg-Ile-NH2
B12: JAL-1801 (peptide)
peptide: Octanoyl-[d(hSer)]FLL[Hyp][NMeL]DRI-NH2
modifications: not fully specified (some residues); printed as Occ-hse-Phe-leu-Leu-Hyp-Nml-Asp-Arg-Ile-NH2
B13: JAL-1802 (peptide)
peptide: {Gluc‑Aoa}-[Aoc(2)][Sni]FLL[Hyp][NMeL]DRI-NH2
modifications: not fully specified (some residues); printed as Gluc-Aoa-Hgl-Sni-Phe-leu-Leu-Hyp-Nml-Asp-Arg-Ile-NH2
B14: JAL-1803 (peptide)
peptide: {Gluc‑Aoa}-[dAoc(2)][Sni]FLL[Hyp][NMeL]DRI-NH2
modifications: not fully specified (some residues); printed as Gluc-Aoa-hgl-Sni-Phe-leu-Leu-Hyp-Nml-Asp-Arg-Ile-NH2
B15: JAL-1804 (peptide)
peptide: 1913-[Aoc(2)][Sni]FLL[Hyp][NMeL]DRI-NH2
modifications: not fully specified (some residues); printed as (1913)-Hgl-Sni-Phe-leu-Leu-Hyp-Nml-Asp-Arg-Ile-NH2; reading uncertain
B16: JAL-1805 (peptide)
peptide: 1270-[Aoc(2)][Sni]FLL[Hyp][NMeL]DRI-NH2
modifications: not fully specified (some residues); printed as (1270)-Hgl-Sni-Phe-leu-Leu-Hyp-Nml-Asp-Arg-Ile-NH2; reading uncertain
B17: JAL-1806 (peptide)
peptide: 1888-[Aoc(2)][Sni]FLL[Hyp][NMeL]DRI-NH2
modifications: not fully specified (some residues); printed as (1888)-Hgl-Sni-Phe-leu-Leu-Hyp-Nml-Asp-Arg-Ile-NH2; reading uncertain
B18: JAL-1807 (peptide)
peptide: Octanoyl-[Aoc(2)][Sni]FLL[Hyp][NMeL]DRI-NH2
modifications: not fully specified (some residues); printed as Occ-Hgl-Sni-Phe-leu-Leu-Hyp-Nml-Asp-Arg-Ile-NH2
B19: JAL-1808 (peptide)
peptide: H-[Adx][Aoc(2)][Sni]FLL[Hyp][NMeL]DRI-NH2
modifications: not fully specified (residue 5); printed as H-Adx-Hgl-Sni-Phe-leu-Leu-Hyp-Nml-Asp-Arg-Ile-NH2; reading uncertain
B20: JAL-1837 (peptide)
peptide: 1888-[dAoc(2)][Sni]FLL[Hyp][NMeL]DRI-NH2
modifications: not fully specified (some residues); printed as 1888-hgl-Sni-Phe-leu-Leu-Hyp-Nml-Asp-Arg-Ile-NH2; reading uncertain
B21: JAL-1838 (peptide)
peptide: H-[Adx][dAoc(2)][Sni]F[leu]L[Hyp][NMeL]DRI-NH2
modifications: reading uncertain; also: printed as H-Adx-hgl-Sni-Phe-leu-Leu-Hyp-Nml-Asp-Arg-Ile-NH2

Biological target: T1, natriuretic peptide receptor-B
Assay: cell-based or functional assay

Binder	EC50 group, cGMP in GTM-3 cells [µM]
Hexanoyl-[dA][dA]F[Paa]KLDRI-NH2 [JAL-0731]	≤ 15
[AR‑314‑87][leu]L[Hyp][NMeL]DRI-NH2 (reading uncertain; also: printed as (AR-314-87)-leu-Leu-Hyp-Nml-Asp-Arg-Ile-NH2) [JAL-1765-2]	≤ 1
B1	≤ 1
B2	≤ 1
B3	≤ 1
B4	≤ 5
B5	≤ 1
B6	≤ 5
B7	≤ 1
Octanoyl-[Sni]F[dK](Me2)L[Hyp][NMeL]VRI-NH2 [JAL-1783]	≤ 15
B8	≤ 1
Octanoyl-[dA]FGLKLDRI-NH2 [JAL-0738]	≤ 15
Octanoyl-[Sni]F[dDab](Me2)L[Hyp][NMeL]DRI-NH2 [JAL-1785]	≤ 1
Octanoyl-[Sni]F[dDab](Me2)L[Hyp][NMeL]VRI-NH2 [JAL-1786]	≤ 5
B9	≤ 5
B10	≤ 5
B11	≤ 5
B12	≤ 5
B13	≤ 5
B14	≤ 1
B15	≤ 5
B16	≤ 15
Octanoyl-[thz]FGLKLDRI-NH2 (reading uncertain; also: printed as Occ-thz-Phe-Gly-Leu-Lys-Leu-Asp-Arg-Ile-NH2) [JAL-0739]	≤ 15
B17	≤ 5
B18	≤ 15
B19	≤ 1
B20	≤ 5
B21	≤ 5
[Oct][Sni]F[leu]L[Pro(trans-4-NH2)][NMeL]DR[Che] (reading uncertain; also: printed as Oct-Sni-Phe-leu-Leu-Tap-Nml-Asp-Arg-Che) [JAL-1843]	≤ 1
